The target in experiment [1] is preformed complex PARP2-QFRD_Alexa488 + Nuc165 (human) (UniProt Q9UGN5). Kind of experiment: FRET or BRET; Alexa647-labeled HPF1 (acceptor) titrated from 18.5 μM to 0 μM into 1 μM Alexa488-labeled PARP2 (donor) alone or into the preformed PARP2–Nuc165 complex (1 μM / 100 nM); 50 mM Tris-HCl pH 8, 50 mM NaCl, 1 mM MgCl2, 0.1 mM EDTA, 0.1 mM TCEP, 0.01% NP-40; Hill model. A general note: Bioluminescence resonance energy transfer reports proximity on the nanometre scale.

Experiment [2] addresses preformed complex PARP2-WT_Alexa488 + Nuc165 (human) (UniProt Q9UGN5). The description is as above.

This is an account of results in PMC7608914.

Usually Kd stands for the free concentration of one partner at which half of the binding sites on the other are occupied at equilibrium, for simple one-to-one binding.

Chain of Alexa647-labeled HPF1 (Q9NWY4 whole entry): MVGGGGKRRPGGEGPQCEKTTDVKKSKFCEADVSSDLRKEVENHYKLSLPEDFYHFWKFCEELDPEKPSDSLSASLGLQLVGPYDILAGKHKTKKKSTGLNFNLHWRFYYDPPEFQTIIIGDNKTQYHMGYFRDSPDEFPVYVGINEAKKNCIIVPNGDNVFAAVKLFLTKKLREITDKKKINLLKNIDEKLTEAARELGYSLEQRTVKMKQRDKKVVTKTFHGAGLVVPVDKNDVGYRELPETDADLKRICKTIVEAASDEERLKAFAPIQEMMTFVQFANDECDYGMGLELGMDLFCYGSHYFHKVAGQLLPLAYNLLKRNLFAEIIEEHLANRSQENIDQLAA

As to “Alexa647-labeled HPF1 (from UniProt Q9NWY4 1-346) (natural protein)”, the Kd in experiment [1] came to 702 nM; in experiment [2] it was 279 nM.
